From PMC7352286, “The Heterooligomerization of Human Small Heat Shock Proteins Is Controlled by Conserved Motif Located in the N-Terminal Domain” (International Journal of Molecular Sciences, 2020)
Changes are numbered by the printed parent chain.

T1: wild-type human small heat shock protein HspB6 (human), O14558
T1 chain: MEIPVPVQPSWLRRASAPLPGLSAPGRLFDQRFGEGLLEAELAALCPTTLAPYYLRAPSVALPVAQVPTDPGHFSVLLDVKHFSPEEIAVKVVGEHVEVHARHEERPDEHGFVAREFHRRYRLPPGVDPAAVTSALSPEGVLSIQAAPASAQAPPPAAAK

T2: wild-type human small heat shock protein HspB6 (human, UniProt O14558 1-160)
T2 construct: HspB6, human, UniProt O14558; WT cDNA in pET22b or pET23a, parent of the full-size mutants; No tag is named; also called WT HspB6; source: E. coli BL21(DE3) pLysS, purified (ammonium sulfate, HiTrap Phenyl-Sepharose, Superdex 200)
T2 sequence (looked up): T1 chain

B1: wild-type human small heat shock protein HspB6, O14558 1-160 (natural protein)
chain: T1 chain
B2: HspB6 R27A (natural protein, human, UniProt O14558 1-160, looked up)
chain: T1 chain with R27A
notes: also called R/A HspB6; R/A mutant of HspB6; source: E. coli BL21(DE3) pLysS, purified (ammonium sulfate, HiTrap Phenyl-Sepharose, Superdex 200)
B3: wild-type human small heat shock protein HspB5 (natural protein, UniProt P02511 1-175, looked up)
chain: MDIAIHHPWIRRPFFPFHSPSRLFDQFFGEHLLESDLFPTSTSLSPFYLRPPSFLRAPSWFDTGLSEMRLEKDRFSVNLDVKHFSPEELKVKVLGDVIEVHGKHEERQDEHGFISREFHRKYRIPADVDPLTITSSLSSDGVLTVNGPRKQVSGPERTIPITREEKPAVTAAPKK
notes: WT cDNA in pET22b or pET23a, parent of the full-size mutants; No tag is named; Forms large homooligomers; also called WT HspB5; source: E. coli BL21(DE3) pLysS, purified (ammonium sulfate, HiTrap Q, Superdex 200)
B4: HspB5 R22A (natural protein, human, UniProt P02511 1-175, looked up)
chain: B3 chain with R22A
notes: also called R/A HspB5; R/A mutant of HspB5; source: E. coli BL21(DE3) pLysS, purified (ammonium sulfate, HiTrap Q, Superdex 200)
B5: HspB6 Δ26–30 (natural protein, human, UniProt O14558 1-160, looked up)
chain: MEIPVPVQPSWLRRASAPLPGLSAPQRFGEGLLEAELAALCPTTLAPYYLRAPSVALPVAQVPTDPGHFSVLLDVKHFSPEEIAVKVVGEHVEVHARHEERPDEHGFVAREFHRRYRLPPGVDPAAVTSALSPEGVLSIQAAPASAQAPPPAAAK
notes: also called Δ HspB6; Δ mutant of HspB6; source: E. coli BL21(DE3) pLysS, purified (ammonium sulfate, HiTrap Phenyl-Sepharose, Superdex 200)
B6: HspB5 Δ21–25 (natural protein, human, UniProt P02511 1-175, looked up)
chain: MDIAIHHPWIRRPFFPFHSPQFFGEHLLESDLFPTSTSLSPFYLRPPSFLRAPSWFDTGLSEMRLEKDRFSVNLDVKHFSPEELKVKVLGDVIEVHGKHEERQDEHGFISREFHRKYRIPADVDPLTITSSLSSDGVLTVNGPRKQVSGPERTIPITREEKPAVTAAPKK
notes: also called Δ HspB5; Δ mutant of HspB5; source: E. coli BL21(DE3) pLysS, purified (ammonium sulfate, HiTrap Q, Superdex 200)

Tests used:
[1] = target: T1, wild-type human small heat shock …; assay: SEC; isolated protein on Superdex 200 HR 10/30 in buffer B; apparent molecular weight against standards; conditions: remark: other sources report otherwise
[2] = target: the molecule itself; assay: as above
HspB6 R27A = target: B2; assay: SEC; equimolar mixture (30–40 µM each), reduced, preincubated 1 h at 42 °C in buffer B (20 mM Tris-acetate, 150 mM NaCl, 0.1 mM EDTA, 15 mM mercaptoethanol); Superdex 200 HR 10/30; fractions on SDS gels; correlation coefficient and molar ratio from band intensities; conditions: both partners purified
[3] = target: T2, wild-type human small heat shock …; assay: as above; conditions: both partners purified
HspB6 Δ26–30 = target: B5; assay: as above; conditions: both partners purified

Row | correlation coefficient [3] | Binder | binding result [2] | further results
1 | – | B1 | – | stoichiometry N [1]: 2
2 | – | B2 | binds | –
3 | 0.99 | B3 | binds | correlation coefficient (HspB6 R27A): 0.99; stoichiometry N [3]: ~2 HspB5/HspB6 molar ratio; correlation coefficient (HspB6 Δ26–30): 0.98
4 | 0.99 | B4 | binds | –
5 | – | B5 | binds | –
6 | 0.98 | B6 | binds | –
